Reference: US20210283178A1

Tests used:
[1] = target: HLA-A2 alone (recombinant human HLA-A2:Ig fusion protein, DimerX I, without added peptide) (human); test: flow cytometry of CAR-T cells incubated with biotinylated HLA-A2, then streptavidin-APC; 82.9% GFP+ APC- (lower right); untransduced T cells: 0.02% in the upper right quadrant
[2] = target: SLL-HLA-A2 complex (NY-ESO-1 peptide … loaded on recombinant human HLA-A2:Ig fusion protein, DimerX I) (human); test: flow cytometry of CAR-T cells incubated with biotinylated SLL-HLA-A2, then streptavidin-APC; 82.6% GFP+ APC- (lower right); untransduced T cells: 0.04% in the upper right quadrant
[3] = target: AIQ-HLA-A2 complex (… peptide loaded on recombinant human HLA-A2:Ig fusion protein, DimerX I) (human); test: flow cytometry of CAR-T cells incubated with biotinylated AIQ-HLA-A2, then streptavidin-APC; 82.4% GFP+ APC- (lower right); untransduced T cells: 0.00% in the upper right quadrant

% of cells in the upper right quadrant (GFP+ / streptavidin-APC+) [1]: 0.13% | % of cells in the upper right quadrant (GFP+ / streptavidin-APC+) [2]: 0.03% | % of cells in the upper right quadrant (GFP+ / streptavidin-APC+) [3]: 0.17%
Substance: CD19 CAR expressed on human CD8+ T cells
